Assay results taken from article PMC5436847.

Legend:
[1] = target: P34 N-terminus-RRM1 truncate (P34 lacking both RRM2 and the C-terminus) (Trypanosoma brucei); test: co-IP; immune capture: beads coated with anti-P34/P37 antibody incubated with the recombinant proteins (1 μg each) for 1 hr at 4°C, washed three times in PBS-T, eluted in SDS sample buffer; bound L5 (pellet) detected by western blot with anti-L5 antibody; pellet signal normalised to L5 + P34 FL, set to 1; at least three biological replicates
[2] = target: P34 N-terminus-RRM2 truncate (P34 lacking the C-terminus) (Trypanosoma brucei); test: as above
[3] = target: P34 R88-91A mutated protein (Trypanosoma brucei); test: as above
[4] = target: P34 R88-91K mutated protein (Trypanosoma brucei); test: as above
[5] = target: P34 R91A mutated protein (Trypanosoma brucei); test: as above
[6] = target: P34 R91A, Y92A mutated protein (Trypanosoma brucei); test: as above
[7] = target: P34 RRM1 truncate protein (Trypanosoma brucei); test: as above
[8] = target: P34 RRM1-RRM2 truncate (the RRM domains alone) (Trypanosoma brucei); test: as above
[9] = target: P34 RRM2 truncate protein (Trypanosoma brucei); test: as above
[10] = test system: P34 F141A (Trypanosoma brucei); test: filter binding; conditions: Filter binding: 10 mM Tris pH 7.4, 1 mM EDTA, 100 mM NaCl, 100 ug/ml BSA, 30 min, room temperature; 0.05 nM 5S rRNA, 0-300 nM protein; Bmax fixed at 100%
[11] = test system: P34 N-terminus-RRM1 (lacks RRM2 and C-terminus) (Trypanosoma brucei); test: filter binding; conditions: Filter binding: 10 mM Tris pH 7.4, 1 mM EDTA, 100 mM NaCl, 100 ug/ml BSA, 30 min, room temperature; 0.05 nM 5S rRNA, 0-300 nM protein; Bmax fixed at 100%
[12] = test system: P34 N-terminus-RRM1-RRM2 (lacks C-terminus) (Trypanosoma brucei); test: filter binding; conditions: Filter binding: 10 mM Tris pH 7.4, 1 mM EDTA, 100 mM NaCl, 100 ug/ml BSA, 30 min, room temperature; 0.05 nM 5S rRNA, 0-300 nM protein; Bmax fixed at 100%
[13] = test system: P34 R91A, Y92A (Trypanosoma brucei); test: filter binding; conditions: Filter binding: 10 mM Tris pH 7.4, 1 mM EDTA, 100 mM NaCl, 100 ug/ml BSA, 30 min, room temperature; 0.05 nM 5S rRNA, 0-300 nM protein; Bmax fixed at 100%
[14] = test system: P34 RRM1 (Trypanosoma brucei); test: filter binding; conditions: Filter binding: 10 mM Tris pH 7.4, 1 mM EDTA, 100 mM NaCl, 100 ug/ml BSA, 30 min, room temperature; 0.05 nM 5S rRNA, 0-300 nM protein; Bmax fixed at 100%
[15] = test system: P34 RRM1-RRM2 (Trypanosoma brucei); test: filter binding; conditions: Filter binding: 10 mM Tris pH 7.4, 1 mM EDTA, 100 mM NaCl, 100 ug/ml BSA, 30 min, room temperature; 0.05 nM 5S rRNA, 0-300 nM protein; Bmax fixed at 100%
[16] = test system: P34 RRM2 (Trypanosoma brucei); test: filter binding; conditions: Filter binding: 10 mM Tris pH 7.4, 1 mM EDTA, 100 mM NaCl, 100 ug/ml BSA, 30 min, room temperature; 0.05 nM 5S rRNA, 0-300 nM protein; Bmax fixed at 100%
[17] = test system: P34 Y174A (Trypanosoma brucei); test: filter binding; conditions: Filter binding: 10 mM Tris pH 7.4, 1 mM EDTA, 100 mM NaCl, 100 ug/ml BSA, 30 min, room temperature; 0.05 nM 5S rRNA, 0-300 nM protein; Bmax fixed at 100%
[18] = test system: P34 Y176A (Trypanosoma brucei); test: filter binding; conditions: Filter binding: 10 mM Tris pH 7.4, 1 mM EDTA, 100 mM NaCl, 100 ug/ml BSA, 30 min, room temperature; 0.05 nM 5S rRNA, 0-300 nM protein; Bmax fixed at 100%
[19] = test system: P34 Y60A (Trypanosoma brucei); test: filter binding; conditions: Filter binding: 10 mM Tris pH 7.4, 1 mM EDTA, 100 mM NaCl, 100 ug/ml BSA, 30 min, room temperature; 0.05 nM 5S rRNA, 0-300 nM protein; Bmax fixed at 100%
[20] = test system: P34 Y92A (Trypanosoma brucei); test: filter binding; conditions: Filter binding: 10 mM Tris pH 7.4, 1 mM EDTA, 100 mM NaCl, 100 ug/ml BSA, 30 min, room temperature; 0.05 nM 5S rRNA, 0-300 nM protein; Bmax fixed at 100%
[21] = test system: P34 full length (WT) (Trypanosoma brucei); test: filter binding; conditions: Filter binding: 10 mM Tris pH 7.4, 1 mM EDTA, 100 mM NaCl, 100 ug/ml BSA, 30 min, room temperature; 0.05 nM 5S rRNA, 0-300 nM protein; Bmax fixed at 100%

Substance: ribosomal protein L5 (natural protein)
- amount of L5 bound relative to P34 full length (set as 1) (relative to P34 full length = 1) [1]: 0.93
- amount of L5 bound relative to P34 full length (set as 1) (relative to P34 full length = 1) [2]: 1.1
- amount of L5 bound relative to P34 WT (set as 1) (relative to P34 WT = 1) [3]: 0.45
- amount of L5 bound relative to P34 WT (set as 1) (relative to P34 WT = 1) [4]: 0.75
- amount of L5 bound relative to P34 WT (set as 1) (relative to P34 WT = 1) [5]: 1.3
- amount of L5 bound relative to P34 WT (set as 1) (relative to P34 WT = 1) [6]: 1.5
- amount of L5 bound relative to P34 full length (set as 1) (relative to P34 full length = 1) [7]: 0.65
- amount of L5 bound relative to P34 full length (set as 1) (relative to P34 full length = 1) [8]: 0.64
- amount of L5 bound relative to P34 full length (set as 1) (relative to P34 full length = 1) [9]: 0.54

Substance: 5S rRNA
- binding signal (fold affinity increase vs WT) [10]: 2
- Kd [11]: 103 nM
- Kd [12]: 66 nM
- binding signal (fold affinity increase vs WT) [13]: 2
- Kd [14]: 69 nM
- Kd [15]: 67 nM
- Kd [16]: 297 nM
- binding signal (fold affinity increase vs WT) [17]: 2
- binding signal (fold affinity increase vs WT) [18]: 2
- binding signal (fold affinity increase vs WT) [19]: 2
- binding signal (fold affinity increase vs WT) [20]: 2
- Kd [21]: 30 nM
